Residue numbers refer to the chain shown, from its start.
B1: SGKY298A: SGK that contains a mutated PY motif (protein)
chain: MTVKTEAAKGTLTYSRMRGMVAILIAFMKQRRMGLNDFIQKIANNSYACKHPEVQSILKISQPQEPELMNANPSPPPSPSQQINLGPSSNPHAKPSDFHFLKVIGKGSFGKVLLARHKAEEVFYAVKVLQKKAILKKKEEKHIMSERNVLLKNVKHPFLVGLHFSFQTADKLYFVLDYINGGELFYHLQRERCFLEPRARFYAAEIASALGYLHSLNIVYRDLKPENILLDSQGHIVLTDFGLCKENIEHNSTTSTFCGTPEYLAPEVLHKQPYDRTVDWWCLGAVLYEMLYGLPPFASRNTAEMYDNILNKPLQLKPNITNSARHLLEGLLQKDRTKRLGAKDDFMEIKSHVFFSLINWDDLINKKITPPFNPNVSGPNDLRHFDPEFTEEPVPNSIGKSPDSVLVTASVKEAAEAFLGFSYAPPTDSFL
modifications: left off: FLAG, end not stated, state not stated
notes: SGK that contains a mutated PY motif
B2: SGKS422D: activated SGK; mutation of one of two phosphorylation sites (protein)
chain: B1 chain with A298Y, S422D
modifications: left off: FLAG, C-terminal, kept
notes: mutation of one of two phosphorylation sites
B3: SGK: Serum- and Glucocorticoid regulated Kinase isoform 1 (protein, UniProt O00141 1-431, looked up)
Serine/threonine-protein …: B1 chain with A298Y

What was measured:
ENaC [1] = assay: Amiloride-sensitive short circuit current in FRT epithelia with ENaC: Nedd4-2 dose response with SGK, SGKY298A or GFP; assay type: cell-based; settings: for effect on Nedd4-2 dose-response relationship for ENaC inhibition (in words): FRT epithelia with α-, β-, γENaC, 0.6 µg SGK construct, Nedd4-2 0–0.2 µg, amiloride 10 µM, n = 18
Method: To test the hypothesis that the interaction of the Nedd4-2 WW-domains with the SGK PY motif is required for SGK to influence Nedd4-2 function, we co-expressed α-, β- and γENaC in FRT epithelia with either wild type SGK or SGKY298A along with increasing amounts of Nedd4-2, and measured the amiloride-sensitive short circuit current.
Figure 4 The SGK PY motif is necessary for SGK to inhibit Nedd4-2. Amiloride-sensitive short-circuit sodium current (relative to 0 µg of Nedd4-2) in FRT cells 48 hr after transfection with α-, β- and γENaC and SGK (closed circles) or SGKY298A (open circles) or GFP (closed squares), in the presence of increasing amounts of Nedd4-2, n = 18. Nedd4-2 is expressed as a fraction of the amount of ENaC cDNA. Expression of SGK and SGKY298A was reported in Figure 1B of Snyder et al..
Fischer rat thyroid (FRT) cells were grown on permeable filter supports (Snapwell™, Corning USA or Millicell PCF, both with […] pore size, 12 mm diameter) in F-12 Coon's media with 5% fetal calf serum (Sigma), 100 U/ml penicillin, and 100 µg/ml streptomycin at 37°C. One day after seeding, cells were cotransfected with α-, β- and γENaC (0.07 µg each), 0.6 µg wildtype or mutant SGK, and 0–0.2 µg Nedd4-2 (Fig. 4 only). Total DNA was held constant (1 µg/millicell) using cloning vector DNA. The plasmids were mixed with Lipofectamine 2000 (Invitrogen) or TFX 50 (Promega, Madison, WI; 7.9 µg/millicell) in serum free F12 Coon's media for 15 minutes and transferred to the apical surface of the monolayer. One-six hours later, the apical media was replaced with F-12 Coon's media containing 5% fetal calf serum and amiloride (10 µM). Short-circuit current was measured […] after transfection in modified Ussing chambers connected to a voltage clamp (South Campus Electronics, Dunedin, New Zealand or Warner Instruments). The apical and basolateral surfaces were bathed in (in mM) 135 NaCl, 1.2 CaCl2, 1.2 MgCl2, 2.4 K2HPO4, 0.6 KH2PO4, 10 HEPES, pH 7.4, at 37°C and bubbled with O2. Amiloride-sensitive short-circuit current (Isc-amiloride) was determined as the difference in current with and without amiloride (10 µM) in the apical bathing solution. Data are presented as relative Isc-amiloride (Isc-amiloride relative) that was obtained by normalizing the Isc-amiloride to that of control cells transfected with αβγENaC in the same experiment. Transepithelial resistance (Rt) was monitored by applying repetitive voltage potential pulses (5 mV for 1 sec at 120 sec intervals) across the epithelium.

Nedd4-2 [2] = settings: previous work; ref [19]; cited from earlier work
Description: There has been debate in the literature over detection of an interaction between SGK and Nedd4-2 in vitro, and the interaction is currently not understood at the molecular level. SGK contains a PY motif (PPFY), which might mediate interaction with the WW-domains of Nedd4/Nedd4-2. […] Two previous in vitro binding studies have asked whether the WW-domains of Nedd4-2 interact with an SGK peptide containing the PY motif. […] To test the hypothesis that the interaction of the Nedd4-2 WW-domains with the SGK PY motif is required for SGK to influence Nedd4-2 function, we co-expressed α-, β- and γENaC in FRT epithelia with either wild type SGK or SGKY298A along with increasing amounts of Nedd4-2, and measured the amiloride-sensitive short circuit current. Consistent with our previous work, we fo ...

Nedd4-2 [3] = settings: SGK lacking its PY motif; ref [20]; cited from earlier work
Nedd4-2 WW-domains = assay: GST interaction experiments, wildtype versus activated SGK on Nedd4-2 WW-domains; assay type: binding, human; settings: GST pulldown with 50 µg WW2, WW3 or WW2–3 fusion, COS7 lysates, densitometry normalized to expression; n = 9 for WW2 and WW3, n = 6 for WW2–3
Method: (§1) SGK is activated by phosphorylation, via a phosphatidylinositide 3-kinase (PI3K)-dependent pathway, and SGK is then able to phosphorylate substrates such as Nedd4-2. Although we were able to detect interaction of Nedd4-2 WW-domains with wildtype SGK (Fig. 1B, C), we hypothesized that an activated form of SGK might have a higher affinity for Nedd4-2. Therefore GST interaction experiments were performed comparing the binding of wildtype SGK and activated SGK (SGKS422D) to isolated Nedd4-2 WW-domains. SGKS422D appeared to run more slowly compared to SGK, consistent with it representing a phosphorylated form of SGK [8]. […] To ask if SGKS422D has an altered effect on Na^+ transport, we measured the amiloride-sensitive short circuit current in Fischer rat thyroid (FRT) epithelia transfected with α-, β-, and γENaC and either wildtype or activated SGK (Fig. 3C). […] Instead, increased binding of SGKS422D to Nedd4-2 may be a factor in the improved ability of SGKS422D to increase amiloride-sensitive current.
(§2) Figure 3 SGKS422D binding to Nedd4-2 and stimulation of ENaC is enhanced compared to wildtype SGK. (A) SGK-FLAG or SGKS422D-FLAG were expressed in COS7 cells. […] After washing the beads, the bound proteins were eluted and analyzed by SDS-PAGE and western blotting with anti-FLAG. […] (B) The resulting bands were quantified by densitometry and normalized to total expression of either SGK or SGKS422D. […]

GST = GST interaction experiments, GST alone (control); assay type: binding; settings: GST pulldown control, COS7 lysates, Fig. 3A
Method: as §1, §2

ENaC [4] = assay: Amiloride-sensitive short circuit current in FRT epithelia transfected with α-, β- and γENaC; assay type: cell-based; settings: serum-containing and serum-free media gave similar results, amiloride 10 µM, n = 4
Method: as §1, §2

Nedd4 = settings: in vitro studies; ref [19]; cited from earlier work
Description: There has been debate in the literature over detection of an interaction between SGK and Nedd4-2 in vitro, and the interaction is currently not understood at the molecular level. SGK contains a PY motif (PPFY), which might mediate interaction with the WW-domains of Nedd4/Nedd4-2. […] Two previous in vitro binding studies have asked whether the WW-domains of Nedd4-2 interact with an SGK peptide containing the PY motif. One study used surface plasmon resonance and ...

Molecule | stimulation of ENaC in the presence of Nedd4-2 (in words) (ENaC [1]; FRT epithelia with ENaC and Nedd4-2) | effect on Nedd4-2 dose-response relationship for ENaC inhibition (in words) (ENaC [1]) | binding to full length Nedd4-2 (in words) (Nedd4-2 [2]) | phosphorylation of Nedd4-2 (in words) (Nedd4-2 [3]) | binding to Nedd4-2 WW-domains compared with wildtype SGK (in words) (Nedd4-2 WW-domains) | binding to GST alone (in words) (GST) | effect on amiloride-sensitive short circuit current, Isc-amiloride (in words) (ENaC [4]) | interaction with Nedd4 (in words) (Nedd4)
B1 | failed to stimulate ENaC activity in the presence of Nedd4-2 | had no effect on the Nedd4-2 dose-response relationship | not able to bind full length Nedd4-2 | less able to phosphorylate Nedd4-2 | – | – | – | –
B2 | – | – | – | – | binds Nedd4-2 WW-domains more strongly than SGK | did not bind to GST alone | greater stimulatory effect on Isc-amiloride compared to SGK | –
B3 | – | reduced inhibition, shifting the dose-response relationship to the right | Nedd4 and Nedd4-2 interact with wildtype SGK | – | – | – | stimulated Isc-amiloride significantly | Nedd4 and Nedd4-2 interact with wildtype SGK

Source: article PMC2921341, “Interaction of Serum- and Glucocorticoid Regulated Kinase 1 (SGK1) with the WW-Domains of Nedd4-2 Is Required for Epithelial Sodium Channel Regulation” (PLoS ONE, 2010)
